According to article PMC11925728, “Homeodomain protein PRRX1 anchors the Ku heterodimers at DNA double-strand breaks to promote nonhomologous end-joining”:

Experiments:
[1] = biological target: MBP-PRRX1A (MBP-PA) (UniProt P54821-2 1-217); test: pull-down; EMSA: 20 mM Tris-HCl pH 7.4, 10 mM MgCl2, 2.5% glycerol, 0.05% NP-40, 0.1 ug/ul BSA, RT, 200 nM DNA; MST: 20 mM Tris-HCl pH 7.4, 150 mM NaCl, 10 mM MgCl2, 2.5%; details: protein: recombinant, tags: N-term MBP (pMAL-c2X)
[2] = biological target: His-PRRX1A (His-PA) (UniProt P54821-2 1-217); test: MST; 10 mM Mg2+; Kd only in figure; EMSA: 20 mM Tris-HCl pH 7.4, 10 mM MgCl2, 2.5% glycerol, 0.05% NP-40, 0.1 ug/ul BSA, RT, 200 nM DNA; MST: 20 mM Tris-HCl pH 7.4, 150 mM NaCl, 10 mM MgCl2, 2.5%; details: protein: recombinant; tags: His (pET-28a); label: 3' 6-FAM on strand 1; blunt
Chain of His-PRRX1A (His-PA) (P54821 other isoform, or with tags, fused parts or gaps): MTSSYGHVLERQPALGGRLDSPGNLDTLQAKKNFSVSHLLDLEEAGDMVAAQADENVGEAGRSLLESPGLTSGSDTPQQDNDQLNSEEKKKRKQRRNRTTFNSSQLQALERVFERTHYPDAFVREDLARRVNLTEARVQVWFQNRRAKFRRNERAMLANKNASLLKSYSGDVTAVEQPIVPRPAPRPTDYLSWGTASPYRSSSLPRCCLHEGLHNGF

[3] = biological target: MBP-PA HD (UniProt P54821-2 94-153); test: pull-down; EMSA: 20 mM Tris-HCl pH 7.4, 10 mM MgCl2, 2.5% glycerol, 0.05% NP-40, 0.1 ug/ul BSA, RT, 200 nM DNA; MST: 20 mM Tris-HCl pH 7.4, 150 mM NaCl, 10 mM MgCl2, 2.5%; details: protein: recombinant; tags: N-term MBP; label: 3' biotin on strand 1; blunt
Chain of MBP-PA HD (P54821 94-153): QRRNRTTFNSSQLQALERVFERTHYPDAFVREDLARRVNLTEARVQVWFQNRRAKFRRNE

[4] = biological target: MBP-PA NRRMut (UniProt P54821-2 1-217, N144A;R145A;R146A); test: as above; details: protein: recombinant; tags: N-term MBP; label: 3' biotin on strand 1; blunt
Chain of MBP-PA NRRMut (P54821 other isoform, or with tags, fused parts or gaps N144A;R145A;R146A): as the sequence (P54821 other isoform, or with tags, fused parts or gaps) above, with N144A, R145A, R146A counted along it

[5] = biological target: MBP-PA R146A (UniProt P54821-2 1-217, R146A); test: pull-down; dsDNA, blunt inferred; EMSA: 20 mM Tris-HCl pH 7.4, 10 mM MgCl2, 2.5% glycerol, 0.05% NP-40, 0.1 ug/ul BSA, RT, 200 nM DNA; MST: 20 mM Tris-HCl pH 7.4, 150 mM NaCl, 10 mM MgCl2, 2.5%; details: protein: recombinant, tags: N-term MBP, label: 3' biotin on strand 1
Chain of MBP-PA R146A (P54821 other isoform, or with tags, fused parts or gaps R146A | R146A R146A): as the sequence (P54821 other isoform, or with tags, fused parts or gaps) above, with R146A counted along it

Chain of MBP-PRRX1A (MBP-PA) (P54821 other isoform, or with tags, fused parts or gaps): as the sequence (P54821 other isoform, or with tags, fused parts or gaps) above

GAGCCCTCGTGTAAACAACATCTTTTTTTG (ssDNA) [ssDNA Oligo#2-S]: no binding ([1]; label: 3' biotin, single strand).

B1: MST blunt (Oligo#3-S/#1-A) (dsDNA)
DNA 1: AAGATGTTGTTTACACGAGGGCTCGAGCCCTCGTGTAAACAACATCTTTTTTTG
DNA 2: CAAAAAAAGATGTTGTTTACACGAGGGCTCGAGCCCTCGTGTAAACAACATCTT
B1: binds [2].

B2: 3' overhang DNA (Oligo#1-A/#2-S) (dsDNA)
DNA 1: B1 DNA 2
DNA 2: GAGCCCTCGTGTAAACAACATCTTTTTTTG
B2: binds ([1]; label: 3' biotin on strand 2, 3' overhang 24 nt (strand 1)).

B3: blunt dsDNA 54 bp, biotinylated (Oligo#1-S/#1-A) (dsDNA)
DNA 1: B1 DNA 1
DNA 2: B1 DNA 2
B3: binds ([1]; label: 3' biotin on strand 1, blunt); no binding [3]; no binding [4]. B3: no binding [5].

B4: 5' overhang DNA (Oligo#1-S/#2-A) (dsDNA)
DNA 1: B1 DNA 1
DNA 2: CAAAAAAAGATGTTGTTTACACGAGGGCTC
B4: binds ([1]; label: 3' biotin on strand 1, 5' overhang 24 nt (strand 1)).
